Assay results: patent US20140087995A1 (published 2014)
Numbered stars: 1 amine (or outer) side, 2 acyl side, 3 side chain; on linkers, the order of the positions; unused ones are H or OH. Bridge positions count the residues as written; N and C are the ends. Side chains are listed from the residue outwards. Ends that are not written are not given here. * marks the point of attachment. C20 diacid = O=C(O)CCCCCCCCCCCCCCCCCCC(=O)*; γGlu = O=C(O)[C@H](CCC(=O)[*:2])N[*:1]; AEEA = NCCOCCOCC(=O)O

T1: rat amylin receptor (rat calcitonin receptor + rat RAMP 3) (rat, UniProt P32214 25-516; Q9JJ73 23-147)
T1 construct: whole, on cells; Membranes of transiently transfected BHK tk'ts 13 cells; also called rAmylin-R; rat amylin 3(a) receptor
T1 sequence (looked up) 1: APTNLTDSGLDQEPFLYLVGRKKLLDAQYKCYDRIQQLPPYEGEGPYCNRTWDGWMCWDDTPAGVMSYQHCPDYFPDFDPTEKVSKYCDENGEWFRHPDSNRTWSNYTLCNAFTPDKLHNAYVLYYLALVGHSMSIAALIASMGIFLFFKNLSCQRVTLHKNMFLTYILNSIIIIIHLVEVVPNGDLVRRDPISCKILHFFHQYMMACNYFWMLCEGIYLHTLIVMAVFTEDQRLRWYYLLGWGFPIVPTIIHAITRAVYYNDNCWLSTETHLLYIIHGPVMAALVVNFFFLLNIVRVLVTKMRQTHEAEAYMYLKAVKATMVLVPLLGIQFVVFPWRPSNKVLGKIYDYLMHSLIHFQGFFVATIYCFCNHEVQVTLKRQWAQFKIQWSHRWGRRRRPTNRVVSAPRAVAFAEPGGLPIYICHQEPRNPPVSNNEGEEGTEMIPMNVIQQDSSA
T1 sequence (looked up) 2: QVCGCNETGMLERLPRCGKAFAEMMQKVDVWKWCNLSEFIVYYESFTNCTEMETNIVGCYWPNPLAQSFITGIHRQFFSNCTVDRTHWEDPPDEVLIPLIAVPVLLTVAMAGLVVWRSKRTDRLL

T2: human calcitonin receptor (human, UniProt P30988 25-474)
T2 construct: whole, on cells; Membranes of stably transfected cells; also called hCTR; hCT
T2 sequence (looked up): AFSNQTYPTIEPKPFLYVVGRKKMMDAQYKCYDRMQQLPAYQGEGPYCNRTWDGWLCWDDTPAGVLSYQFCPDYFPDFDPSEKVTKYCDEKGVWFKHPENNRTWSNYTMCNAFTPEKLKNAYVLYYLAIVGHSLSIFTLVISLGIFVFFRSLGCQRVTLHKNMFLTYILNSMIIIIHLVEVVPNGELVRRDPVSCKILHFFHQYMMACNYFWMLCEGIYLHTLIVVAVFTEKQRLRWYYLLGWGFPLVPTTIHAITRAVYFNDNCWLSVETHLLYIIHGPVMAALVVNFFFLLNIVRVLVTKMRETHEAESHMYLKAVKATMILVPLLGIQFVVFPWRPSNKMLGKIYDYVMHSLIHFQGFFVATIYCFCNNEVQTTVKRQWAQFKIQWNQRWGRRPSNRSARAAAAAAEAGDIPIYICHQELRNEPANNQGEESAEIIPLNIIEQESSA

T3: rat calcitonin receptor (rat, UniProt P32214 25-516)
T3 construct: whole, on cells; Membranes of transiently transfected BHK tk'ts 13 cells; also called rCTR; rat calcitonin (a) receptor
T3 sequence (looked up): T1 sequence (looked up) 1

B1: N^ε1-[2-[2-[2-[[2-[2-[2-[[(4S)-4-carboxy-4-(19-carboxynonadecanoylamino)butanoyl]amino]ethoxy]ethoxy]acetyl]amino]ethoxy]ethoxy]acetyl]-[Arg17,Pro21,Pro27,Arg34 … (peptide)
peptide: K([AEEA-AEEA-γGlu-C20 diacid])CNTATCATQRLANFLRHSSPNFGAIPSSTNVGRNTY-NH2
modifications: disulfide 2-7; N-terminus assumed
SMILES: CC[C@H](C)[C@H](NC(=O)[C@H](C)NC(=O)CNC(=O)[C@H](Cc1ccccc1)NC(=O)[C@H](CC(N)=O)NC(=O)[C@@H]1CCCN1C(=O)[C@H](CO)NC(=O)[C@H](CO)NC(=O)[C@H](Cc1c[nH]cn1)NC(=O)[C@H](CCCNC(=N)N)NC(=O)[C@H](CC(C)C)NC(=O)[C@H](Cc1ccccc1)NC(=O)[C@H](CC(N)=O)NC(=O)[C@H](C)NC(=O)[C@H](CC(C)C)NC(=O)[C@H](CCCNC(=N)N)NC(=O)[C@H](CCC(N)=O)NC(=O)[C@@H](NC(=O)[C@H](C)NC(=O)[C@@H]1CSSC[C@H](NC(=O)[C@@H](N)CCCCNC(=O)COCCOCCNC(=O)COCCOCCNC(=O)CC[C@H](NC(=O)CCCCCCCCCCCCCCCCCCC(=O)O)C(=O)O)C(=O)N[C@@H](CC(N)=O)C(=O)N[C@@H]([C@@H](C)O)C(=O)N[C@@H](C)C(=O)N[C@@H]([C@@H](C)O)C(=O)N1)[C@@H](C)O)C(=O)N1CCC[C@H]1C(=O)N[C@@H](CO)C(=O)N[C@@H](CO)C(=O)N[C@H](C(=O)N[C@@H](CC(N)=O)C(=O)N[C@H](C(=O)NCC(=O)N[C@@H](CCCNC(=N)N)C(=O)N[C@@H](CC(N)=O)C(=O)N[C@H](C(=O)N[C@@H](Cc1ccc(O)cc1)C(N)=O)[C@@H](C)O)C(C)C)[C@@H](C)O
notes: Synthetic acylated analogue of human amylin; also called compound 95
B2: N^ε1-[2-[2-[2-[[2-[2-[2-[[(4S)-4-carboxy-4-(19-carboxynonadecanoylamino)butanoyl]amino]ethoxy]ethoxy]acetyl]amino]ethoxy]ethoxy]acetyl]-[Arg17,Pro21,Pro27,His34 … (peptide)
peptide: K([AEEA-AEEA-γGlu-C20 diacid])CNTATCATQRLANFLRHSSPNFGAIPSSTNVGHNTY-NH2
modifications: disulfide 2-7; N-terminus assumed
SMILES: CC[C@H](C)[C@H](NC(=O)[C@H](C)NC(=O)CNC(=O)[C@H](Cc1ccccc1)NC(=O)[C@H](CC(N)=O)NC(=O)[C@@H]1CCCN1C(=O)[C@H](CO)NC(=O)[C@H](CO)NC(=O)[C@H](Cc1c[nH]cn1)NC(=O)[C@H](CCCNC(=N)N)NC(=O)[C@H](CC(C)C)NC(=O)[C@H](Cc1ccccc1)NC(=O)[C@H](CC(N)=O)NC(=O)[C@H](C)NC(=O)[C@H](CC(C)C)NC(=O)[C@H](CCCNC(=N)N)NC(=O)[C@H](CCC(N)=O)NC(=O)[C@@H](NC(=O)[C@H](C)NC(=O)[C@@H]1CSSC[C@H](NC(=O)[C@@H](N)CCCCNC(=O)COCCOCCNC(=O)COCCOCCNC(=O)CC[C@H](NC(=O)CCCCCCCCCCCCCCCCCCC(=O)O)C(=O)O)C(=O)N[C@@H](CC(N)=O)C(=O)N[C@@H]([C@@H](C)O)C(=O)N[C@@H](C)C(=O)N[C@@H]([C@@H](C)O)C(=O)N1)[C@@H](C)O)C(=O)N1CCC[C@H]1C(=O)N[C@@H](CO)C(=O)N[C@@H](CO)C(=O)N[C@H](C(=O)N[C@@H](CC(N)=O)C(=O)N[C@H](C(=O)NCC(=O)N[C@@H](Cc1c[nH]cn1)C(=O)N[C@@H](CC(N)=O)C(=O)N[C@H](C(=O)N[C@@H](Cc1ccc(O)cc1)C(N)=O)[C@@H](C)O)C(C)C)[C@@H](C)O
notes: Synthetic acylated analogue of human amylin; also called compound 97

Legend:
[1] = target: T1, rat amylin receptor (rat calcitonin …); experiment: SPA competition with 125I-rat amylin on membranes of BHK tk'ts 13 cells with rat calcitonin receptor + rat RAMP3 (Assay VI)
[2] = target: T2, human calcitonin receptor; experiment: ratio of IC50 on human calcitonin receptor to IC50 on human amylin receptor (reference m42), SPA competition
Procedure: The resulting pellet was resuspended, homogenized and centrifuged (20.000 rpm, 15 min) in a buffer containing 20 mM Na-HEPES and 0.1 mM EDTA (pH 7.4, buffer 2). The resulting pellet was resuspended in buffer 2 and protein concentration was measured (BCA protein Assay, Pierce). The homogenate was kept cold during the whole procedure. The membranes were kept at −80° C. until use. The assay was performed in a 384 well Optiplate (PerkinElmer) in a total volume of 40 ul. Membranes were mixed with SPA beads. Final concentration of membranes 35 ng/μL final and SPA beads was 0.05 mg/well. Test-compounds were dissolved in DMSO and further diluted in assay buffer (50 mM Hepes, pH 7.4, 1 mM CaCl2, 5 mM MgCl₂, 0.1% OA and 0.02% Tween20). […] The final mixture was incubated with shaking at 400 rpm for 120 min at 25° C. prior to centrifugation (1500 rpm, 10 min). Samples were analyzed on TopCounter™ (Packard). The IC₅₀ was calculated using (one site binding competition analysis) GraphPad Prism5 as a measure of receptor affinity.
Membranes were prepared in the following way; the cells were rinsed with PBS and incubated with Versene for approximately 5 min before harvesting. The cells were flushed with PBS and the cell-suspension was centrifuged for 5 min at 1000 rpm. Cells were homogenized (Ultrathurrax) in a buffer containing 20 mM Na-HEPES and 10 mM EDTA (pH 7.4) and centrifuged at 20.000 rpm for 15 min. The resulting pellet was resuspended, homogenized and centrifuged (20.000 rpm, 15 min) in a buffer containing 20 mM Na-HEPES and 0.1 mM EDTA (pH 7.4, buffer 2). The resulting pellet was resuspended in buffer 2 and protein concentration was measured (BCA protein Assay, Pierce). The homogenate was kept cold during the whole procedure. The membranes were kept at −80° C. until use. Assay was performed in a 384 well Optiplate (PerkinElmer) in a total volume of 40 ul. Membranes were mixed with SPA beads.

[3] = target: T3, rat calcitonin receptor; experiment: ratio of IC50 on rat calcitonin receptor to IC50 on rat amylin receptor (reference m40)
[4] = target: T3, rat calcitonin receptor; experiment: SPA competition with 125I-calcitonin on membranes of BHK tk'ts 13 cells with rat calcitonin receptor (Assay VIII)

| Binder | IC50 [1] [nM] | Ratio hCT/hAmylin binding [2] | Ratio rCT/rAmylin binding [3] | IC50 [4] [nM] |
| --- | --- | --- | --- | --- |
| B1 | 5.45 | 63.4 | 71.3 | 388 |
| B2 | 2.24 | 104 | 71.1 | 159 |
